The source of these data is the supplement of paper PMC12042874.

± gives the uncertainty stated by the source.

The nature of this data set: amyloid nucleation score (Sup35N fusion, yeast selection) (log enrichment); library NNK1; higher = more nucleation; inactive = no reads after selection. The essentials:
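Sup35N was fused to peptides of 20 random codons and expressed in psi-negative yeast, which were induced with 100 μM copper sulfate for 24 hours and then grown on medium lacking adenine and uracil for 7 days at 30°C. Plasmid inserts from input and output were sequenced on Illumina. The nucleation score is the DiMSum log enrichment of output over input reads, centred on the mode score of non-aggregating sequences. Sequences with under 100 input reads were left out, and random libraries had three technical output replicates.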
In turn, LSATGGMGIRF gave an amyloid nucleation score of -0.318 ± 1.2.

SRVVFTSM returned an amyloid nucleation score of -1.18 ± 1.6.

In the case of SNIKLGFLRSLHIMKTSSDL, the amyloid nucleation score is -0.113 ± 0.41.

As for SISAASCIHFRMDVVCKTDF, the amyloid nucleation score was -0.519 ± 0.41.

For the substance SLSRNYHPFRAKIFLCLGRN, the amyloid nucleation score was determined as 0.097 ± 0.82.

YLRFTV yielded an amyloid nucleation score of 2.57 ± 0.27.

Turning to VDNFIYLVNYLHTRNFISRH, the amyloid nucleation score was -0.287 ± 0.35.

For the substance QVTNRMRLRLMYR, the amyloid nucleation score turned out to be 0.699 ± 0.37.

For LYCWVFSLSSMESNWLGQHT, the amyloid nucleation score was -0.012 ± 0.29.

MLWRYKRCNFARMFNLRVYV: the amyloid nucleation score is -0.822 ± 0.65.

Substance GPTYVSSFLELWRNTSHDFC had an amyloid nucleation score of -0.402 ± 0.88.

On to SPFPGKEFNGIVCPLPYSMI, for which the amyloid nucleation score is -0.366 ± 0.56.

LAKATGHVVCMSRVRRPVGQ: the amyloid nucleation score result was “inactive”.

In the case of GFIQWLMLWRVFFSM, the amyloid nucleation score was -0.681 ± 0.39.

As for VCMRTAGCFSDTYGVHGFKI, the amyloid nucleation score came to 1.21 ± 0.24.

Regarding LRKSHYFTY, the amyloid nucleation score was -0.429 ± 0.58.

Consider FGLVAGRR, for which the amyloid nucleation score was -0.188 ± 1.2.

In turn, FCKCNQVFISCLCGSTKHTG registered an amyloid nucleation score of 3.59 ± 0.1.

As to STFIVGMRYVPLSKGR, the amyloid nucleation score is -0.513 ± 1.

For the substance VDKNMFI, the amyloid nucleation score is -0.021 ± 1.2.

NDNSVTILVCARVSTNGIFD displayed an amyloid nucleation score of 3.38 ± 0.11.

In turn, HIWLVVKKFPNIEHSIMIGS gave an amyloid nucleation score of -0.334 ± 1.2.

Turning to QVLVYNDFRYFEFHRDVFLR, the amyloid nucleation score was determined as 8.45 ± 0.073.

NKNMSNKFVSIMQKFFSIDG yielded an amyloid nucleation score of 2.72 ± 0.13.

For the substance SMIGRSCYEV, the amyloid nucleation score result was “inactive”.

Regarding VTCRCYSFSLMAGAMTRRSG, the amyloid nucleation score was 0.188 ± 0.75.

The substance LMTLINPQFFSCSFLDDVSN registered an amyloid nucleation score of -0.362 ± 0.6.

QKSIDLYFEKRHTISTQNR registered an amyloid nucleation score of -0.455 ± 0.56.

The substance KNFHELTVDYVCVLYREQLF showed an amyloid nucleation score of 0.115 ± 0.26.

For SWLGPRWSFWFWFFIWSSGL, the amyloid nucleation score amounted to 1.37 ± 0.74.

Regarding KGRSCLGRLRLVGQMRPKYN, the amyloid nucleation score turned out to be 0.366 ± 0.76.

As for SRRWGLN, the amyloid nucleation score result is “inactive”.

YWNRRYIGTPLNM had an amyloid nucleation score of -1.73 ± 2.7.

IKPANYA showed an amyloid nucleation score of -0.679 ± 0.53.

Substance WHQEWRKWADKGLAIRT returned an amyloid nucleation score of 0.836 ± 0.97.

Regarding DLSRDAIRSKSEGAVR, the amyloid nucleation score is -1.24 ± 1.7.

As to VYPWPVERSNFPTSALSYTK, the amyloid nucleation score was -0.843 ± 0.6.

On to LCGSGGLMCRQGHYAEMGGC, for which the amyloid nucleation score is -0.287 ± 1.1.

For the substance LNPCHWGAFLY, the amyloid nucleation score amounted to 0.648 ± 0.67.

LIDLCGLCFEAR yielded an amyloid nucleation score of 0.181 ± 0.26.

For the substance NPNMVSRPCRVGRRPFDVGL, the amyloid nucleation score is -0.022 ± 0.45.

With FAGSSGRCTPGSGFQGSIVT, the amyloid nucleation score is -0.167 ± 0.33.

In turn, TGLCDRLRSLEGAAAVR gave an amyloid nucleation score of 0.514 ± 0.49.

As to FVSWLFVS, the amyloid nucleation score was -1.4 ± 0.98.

VRFSLHDRGRQTRTCYSPWA returned an amyloid nucleation score of 0.006 ± 0.36.

For RTPCLSESGPFSGFQHPGDI, the amyloid nucleation score was -0.66 ± 1.2.

For the substance ETFPYMRMYARALSRT, the amyloid nucleation score was found to be 0.369 ± 0.39.

For the substance KAVRMSNFD, the amyloid nucleation score stood at 0.223 ± 0.71.

Consider SSGVSNQSIQDIDMRLVYFA, for which the amyloid nucleation score came to 0.06 ± 0.35.

Turning to ARSTSALQL, the amyloid nucleation score was -1.97 ± 1.8.

HEIKIRHFIRMTGSGSYQSL registered an amyloid nucleation score of 0.176 ± 0.29.

The substance SHGAGYRFTEFIHHSGGLPN had an amyloid nucleation score of 0.498 ± 0.39.

ESCVRYRSACSMFV had an amyloid nucleation score of 0.902 ± 0.47.

On to QIYVIICLMFSDIGMHIAYV, for which the amyloid nucleation score entry is “inactive”.

The substance GFVPLWLW displayed an amyloid nucleation score of 0.977 ± 0.8.

Substance TSLYNCRVRRLYFWWLRIML registered an amyloid nucleation score of 1.14 ± 0.7.

CDGPCALQS registered an amyloid nucleation score of 0.263 ± 0.51.

With RRTTSMERYCR, the amyloid nucleation score amounted to 0.291 ± 0.43.

Regarding DTNQGYGVSGQIVKGRICFN, the amyloid nucleation score is -0.681 ± 0.47.

Take AGWKTRHQGRVIVLGFWEGW: the amyloid nucleation score was 0.059 ± 0.41.

Turning to GVVFPWSVLMFSCSSCLAVP, the amyloid nucleation score came to 0.605 ± 0.61.

As for PAFFCFWNNLSCVSTWSYLV, the amyloid nucleation score amounted to 2.44 ± 0.088.

Consider LLRLLVRAVMFFWAWGSRGA, for which the amyloid nucleation score result is “inactive”.

MQRLLYACVHYRESAQVSTL had an amyloid nucleation score of 1.93 ± 0.37.

LTCRYLACCSLRSGRQMLVG showed an amyloid nucleation score of -0.694 ± 1.2.

As for FRSVVWRLHTFY, the amyloid nucleation score was -0.075 ± 0.5.

YILSSLPFRHLLGVNICFTA displayed an amyloid nucleation score of -0.364 ± 0.31.

The substance VHKDFHANANRVSWQLAL yielded an amyloid nucleation score of -0.243 ± 0.73.

For YGRATIWNYKSSMDGPKNGK, the amyloid nucleation score result is “inactive”.

KKKYTEHISFTALHKLFTRR showed an amyloid nucleation score of 0.189 ± 0.92.

In turn, SQPMSS gave an amyloid nucleation score of 0.591 ± 0.31.

Turning to ILITSLWFSGVADVMANRVW, the amyloid nucleation score was 0.314 ± 0.34.

With LADGLTVRSKYYISVNSVGS, the amyloid nucleation score was -0.16 ± 0.4.

As to IVVFFAPDFCGRQLYDKSKS, the amyloid nucleation score was determined as 4.85 ± 0.11.

For ASPMVRISYLNDHKQLKKF, the amyloid nucleation score was -0.414 ± 0.28.

Turning to HIFHCGNRRFHTIKM, the amyloid nucleation score entry was “inactive”.

In turn, SNRGRNLGSYCVGNYFGCFT showed an amyloid nucleation score of -0.224 ± 1.7.

The substance MVIHP gave an amyloid nucleation score of 3.57 ± 0.087.

Consider RVDTL, for which the amyloid nucleation score was 0.694 ± 1.1.

Substance EMIMVGSMYSRGNSTCFPRA displayed an amyloid nucleation score of 0.777 ± 0.17.

In turn, HNHRRQDGIRNA returned an amyloid nucleation score of 1.12 ± 0.14.

As for VYASSCMLGTWLSDSTSGCS, the amyloid nucleation score turned out to be 0.371 ± 0.69.

ATLMYWASSWSCWFTKGTAV yielded an amyloid nucleation score of -0.413 ± 0.37.

GTVSGYYVRVGNFAMYYQAY yielded an amyloid nucleation score of 1.91 ± 0.17.

The substance LYSSLSYTKFMCAG registered an amyloid nucleation score of -0.51 ± 0.81.

As for IILFSSVGCSMCMTSGLEGF, the amyloid nucleation score was 6.964 ± 0.066.

In the case of QGISPLRWAVLYRFMYGCVR, the amyloid nucleation score was -0.209 ± 0.57.

YNMNFVSLVLGARRVYALSM came in with an amyloid nucleation score of 3.62 ± 0.12.

In turn, TGNHSEVTT returned an amyloid nucleation score of 0.233 ± 0.32.

On to PNCDAYWVNWFKLRCLSHLF, for which the amyloid nucleation score is -0.489 ± 1.7.

In turn, ALNLKCIRLSGV showed an amyloid nucleation score of 0.496 ± 0.47.

For TDQVWMLVSRRFKHFRHIEV, the amyloid nucleation score turned out to be 1.38 ± 0.2.

For the substance GFRSGSCGFGIL, the amyloid nucleation score is -1.14 ± 0.48.

VHLCLCRCVLCAENGLWPFS showed an amyloid nucleation score of -0.761 ± 1.2.

Substance TSNHML had an amyloid nucleation score of 0.226 ± 0.61.

Turning to PGYSVPFSCGDQVPQQLPIR, the amyloid nucleation score is -0.538 ± 2.1.

YHNFNSV gave an amyloid nucleation score of 0.164 ± 0.34.

The substance DLRFCNASYVLWISDFAHAV yielded an amyloid nucleation score of -0.08 ± 0.41.

EFLMIQIVMGAPGCHKGTRR: the amyloid nucleation score came out at 0.322 ± 0.47.

The substance VTYNGYVG returned an amyloid nucleation score of -0.205 ± 0.58.

IIMRTMHHAKRLSGLKP had an amyloid nucleation score of 0.996 ± 0.44.

As for IICSSM, the amyloid nucleation score result was “inactive”.

On to GGAHSY, for which the amyloid nucleation score came to 0.233 ± 0.5.

Take HLCFIADGQLRTVVVELFPI: the amyloid nucleation score was found to be 0.576 ± 0.42.

FKKNKQSSVKFGSNKSLQIG returned an amyloid nucleation score of 0.027 ± 0.51.

As for MVDPRVTS, the amyloid nucleation score was -0.86 ± 1.1.

Substance LLLAY registered an amyloid nucleation score of -0.716 ± 0.44.

As to NNGKSIPFPGGARKVSLGSG, the amyloid nucleation score is 0.087 ± 0.26.

Substance QCVFYMWVSFEELK displayed an amyloid nucleation score of 0.418 ± 0.97.

As to NSCRCYFLLGELDLNAFNSV, the amyloid nucleation score is 1.74 ± 0.55.

For the substance RGCPAFDNVTSYDESSEWSY, the amyloid nucleation score stood at 0.365 ± 0.62.

RGCSFFWCPLCRGYGGCLCC came in with an amyloid nucleation score of 0.482 ± 0.74.

For HFEQGYAHSSYMWVLGRPMW, the amyloid nucleation score was found to be 2.86 ± 0.087.

GFDFMWGGGFRNSRNRFQLS displayed an amyloid nucleation score of 0.428 ± 0.6.

SVNLSI: the amyloid nucleation score is -0.196 ± 0.37.

CTADWLRDPRVGVRGPEGGG showed an amyloid nucleation score of 0.273 ± 0.3.

For the substance VCKVRRL, the amyloid nucleation score worked out at 0.461 ± 0.63.

Substance VVCQSDILDLSMWTMMGVSM had an amyloid nucleation score of -0.823 ± 0.66.

ATDSWDC came in with an amyloid nucleation score of 0.278 ± 0.33.

With LKWWWIQNAGCTVVIMVL, the amyloid nucleation score is -0.701 ± 0.54.

Substance VVLAMTVRLWC displayed an amyloid nucleation score of -0.667 ± 1.3.

Substance TLSIFVLRIGARYNMLSLIQ came in with an amyloid nucleation score of 0.095 ± 0.59.

MVSDMLVKATVHPMYFMTLW yielded an amyloid nucleation score of -0.34 ± 0.32.

FVRIRYITGRITSDRRREFC gave an amyloid nucleation score of 0.591 ± 1.

As to TWSRNIINFRIFWYTLFQVH, the amyloid nucleation score worked out at 0.005 ± 0.29.

Consider HMVFC, for which the amyloid nucleation score was -0.446 ± 0.33.

YNLRMDGVCGTVLRYVVEGR had an amyloid nucleation score of -0.403 ± 1.4.

Substance GWSLNQVVCCALCSVSRRKR registered an amyloid nucleation score of 0.553 ± 0.48.

GCRGSFVEGWIAHMADGSFI came in with an amyloid nucleation score of -0.577 ± 0.57.

In turn, ESMDGFARR came in with an amyloid nucleation score of 0.654 ± 0.67.

VVMLNFYCIRNRRVWIVNIC came in with an amyloid nucleation score of 3.76 ± 0.058.

For GRKRYKRATHH, the amyloid nucleation score is -0.593 ± 1.5.

Take FNLATIPISQFITPNSPLLR: the amyloid nucleation score was -0.091 ± 1.1.

In turn, YMRRVLPRCHPIWNGFPFAR came in with an amyloid nucleation score of 0.254 ± 0.93.

On to YFKEFWIWLW, for which the amyloid nucleation score result was “inactive”.

GSCLISRT gave an amyloid nucleation score of 1.02 ± 0.5.

As for VGFVATNCRWSCFS, the amyloid nucleation score came to 5.5 ± 0.11.

In the case of AVEGCVFCWIRCVIRFLV, the amyloid nucleation score was -0.642 ± 0.69.

FVVRLRLLANLWWYNCCKCS displayed an amyloid nucleation score of 0.748 ± 0.43.

Consider NWNFIRRSARVWSR, for which the amyloid nucleation score was -1.7 ± 1.2.

As for ARATS, the amyloid nucleation score was -0.53 ± 0.52.

As to VMVIMDS, the amyloid nucleation score is 2.11 ± 0.21.
